Experimental data from patent US20260116991A1 (HAINAN SIMCERE ZAIMING PHARMACEUTICAL, published 2026).

What was measured:
[1] = target: T1, human GPC3 on CHO-K1-human GPC3 cells (CHOK1-hGPC3.2B5) (human, UniProt P51654 25-554); assay: FACS, CHOK1-hGPC3.2B5 cells;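 also: flow cytometry of humanized antibodies binding to the cells over one hour in the cold, read as cell mean fluorescence intensity, with EC50 obtained by curve fitting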
T1 construct: whole, on cells

[2] = target: biotinylated labeled human GPC3 protein (produced in-house) (human, UniProt P51654 25-559, limits assumed, biotinylated (Dojindo, Cat. No. LK03); sites not stated); assay: ELISA, biotinylated human GPC3 protein
monkey GPC3-His protein [3] = target: T2, monkey GPC3-His protein (monkey); assay: SPR, antibody captured on Protein A chip, monkey GPC3-His analyte;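 also: run at 25 °C with 240 s association and up to 600 s dissociation, double-referenced, kinetics fitted to a 1:1 Langmuir binding model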
T2 construct: Bought recombinant protein; also called monkey GPC3 protein

human GPC3-His protein = target: T3, human GPC3-His protein (human, UniProt P51654 25-559); assay: SPR, antibody captured on Protein A chip, human GPC3-His analyte;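 also: measured at 25 °C flow cell, human GPC3-His injected at five concentrations up to 200 nM, 240 s association, up to 600 s dissociation, double-referenced, fitted to Langmuir 1:1 model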
T3 construct: also called human GPC3 protein; not shown: His tag

monkey GPC3-His protein [4] = target: T2, monkey GPC3-His protein; assay: ELISA, monkey GPC3-His coated;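 also: Plate-coated antigen at 1 µg/mL, antibody binding 2 h at 37 °C, detected with HRP-labeled secondary antibody and TMB, absorbance at 450 nm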

B1: hAb005LH3L1b (antibody, human IgG1, V domains shown)
VH: EVQLVQSGAEVKKPGASVKVSCKASGYTFTDYEMHWVRQAPGQGLEWIGAIDPETGNTAYIQKFKGRATLTTDKSTSTAYMELRSLRSDDTAVYYCTRFYSYSHWGQGTTVTVSS
VL: DIVMTQTPLSLPVTPGEPASISCRSSQSLVHSNRNTYLHWYLQKPGQSPQLLIYKVSNRFSGVPDRFSGSGSGTDFTLKISRVEAEDVGVYYCSQNTHVPPTFGGGTKVEIK
notes: Humanized F3.54.12; VH H3 + VL L1b; expressed as human IgG1
[1]
  EC50: 0.558 nM
  Max MFI: 4740 MFI
[2]
  OD450 at 0.0008 nM: 0.074 OD450
  OD450 at 0.004 nM: 0.169 OD450
  OD450 at 0.02 nM: 0.426 OD450
  OD450 at 0.11 nM: 0.838 OD450
  OD450 at 0.53 nM: 0.952 OD450
  OD450 at 2.67 nM: 1.1 OD450
  OD450 at 13.33 nM: 1.03 OD450
  OD450 at 66.66 nM: 1.04 OD450

B2: hAb005LH3L1 (antibody, human IgG1, V domains shown)
VH: EVQLVQSGAEVKKPGASVKVSCKASGYTFTDYEMHWVRQAPGQGLEWIGAIDPETGNTAYIQKFKGRATLTTDKSTSTAYMELRSLRSDDTAVYYCTRFYSYSHWGQGTTVTVSS
VL: DIVMTQTPLSLPVTPGEPASISCRSSQSLVHSNGNTYLHWYLQKPGQSPQLLIYKVSNRFSGVPDRFSGSGSGTDFTLKISRVEAEDVGVYYCSQNTHVPPTFGGGTKVEIK
notes: Humanized F3.54.12; VH H3 + VL L1; expressed as human IgG1
[1]
  EC50: 0.734 nM
  Max MFI: 4700 MFI
[2]
  OD450 at 0.0008 nM: 0.079 OD450
  OD450 at 0.004 nM: 0.162 OD450
  OD450 at 0.02 nM: 0.441 OD450
  OD450 at 0.11 nM: 0.715 OD450
  OD450 at 0.53 nM: 0.923 OD450
  OD450 at 2.67 nM: 1.1 OD450
  OD450 at 13.33 nM: 1.07 OD450
  OD450 at 66.66 nM: 1.12 OD450

B3: F1.62.9 (antibody, human IgG1, kappa, V domains shown)
VH: QVQLQQSDAELVKPGASVKISCKVSGYIFTDHTIHWMKQRPEQGLEWIGYIYPRDGSIKYNENFKGKATLTADKSSSATYMQLNSLTSEDSAVYFCARPIYYDYAYYFDYWGQGTTLTVSS
VL: DVVMTQSPLSLPVSLGDQASISCRSRQSLVHSNGNTYLHWYLQKPGQSPKVLIYKVSNRFSGVPDRFSGSGSGTDFTLKISRVEAEDLGVYFCSQSTHVPYTFGGGTKLEIKR
notes: Human-murine chimeric antibody
Monkey GPC3-His protein [3]
  Kd: 44 nM
  koff: 0.00156 s⁻¹
  kon: 35500 M⁻¹ s⁻¹
Human GPC3-His protein
  Kd: 46 nM
  koff: 0.00129 s⁻¹
  kon: 28000 M⁻¹ s⁻¹
Monkey GPC3-His protein [4]
  OD450 at 0.0001 nM: 0.21 OD450
  OD450 at 0.001 nM: 0.36 OD450
  OD450 at 0.01 nM: 0.39 OD450
  OD450 at 0.1 nM: 0.56 OD450
  OD450 at 1 nM: 0.64 OD450
  OD450 at 10 nM: 0.66 OD450
  OD450 at 100 nM: 1.06 OD450

B4: F1.153.1 (antibody, human IgG1, kappa, V domains shown)
VH: QIQLVQSGPELKKPGETVKISCKASGYTFTTAGMQWVQKMPGKGFKWIGWINTHSGEPQYAEDFKGRFAFSLETSASTAYLQISNLKNEDTATYFCARSFYYHGSSFFYFDYWGQGTTLTVSS
VL: DIVMTQSQKFMSTTVGDRVSITCKASQNVGTAVAWYQQKPGQSPKLLIYSASNRYTGVPDRFTGSGSGADFTLTISNMQSEDLADYFCQQYSRYPLTFGAGTKLELKR
notes: as for B3
Monkey GPC3-His protein [3]
  Kd: 0.414 nM
  koff: 4.27e-05 s⁻¹
  kon: 103000 M⁻¹ s⁻¹
Human GPC3-His protein
  Kd: 0.92 nM
  koff: 6.22e-05 s⁻¹
  kon: 67600 M⁻¹ s⁻¹
Monkey GPC3-His protein [4]
  OD450 at 0.0001 nM: 0.27 OD450
  OD450 at 0.001 nM: 0.36 OD450
  OD450 at 0.01 nM: 0.49 OD450
  OD450 at 0.1 nM: 1.06 OD450
  OD450 at 1 nM: 1.61 OD450
  OD450 at 10 nM: 1.98 OD450
  OD450 at 100 nM: 2 OD450

B5: GC33 IgG (antibody, V domains shown)
VH: QVQLVQSGAEVKKPGASVKVSCKASGYTFTDYEMHWVRQAPGQGLEWMGALDPKTGDTAYSQKFKGRVTLTADKSTSTAYMELSSLTSEDTAVYYCTRFYSYTYWGQGTLVTVSS
VL: DVVMTQSPLSLPVTPGEPASISCRSSQSLVHSNRNTYLHWYLQKPGQSPQLLIYKVSNRFSGVPDRFSGSGSGTDFTLKISRVEAEDVGVYYCSQNTHVPPTFGQGTKLEIKR
notes: Control antibody expressed as complete IgG; also called codrituzumab
[1]
  EC50: 2.19 nM
  Max MFI: 17000 MFI
[2]
  OD450 at 0.0004 nM: 0.054 OD450
  OD450 at 0.002 nM: 0.067 OD450
  OD450 at 0.011 nM: 0.127 OD450
  OD450 at 0.056 nM: 0.442 OD450
  OD450 at 0.28 nM: 0.993 OD450
  OD450 at 1.39 nM: 1.5 OD450
  OD450 at 6.94 nM: 1.36 OD450
  OD450 at 34.72 nM: 1.3 OD450

B6: F1.9.19 (antibody, human IgG1, kappa, V domains shown)
VH: DVQLQESGPGLVKPSQSLSLTCSVTGYSITSGYYWNWIRQFPGNRLEWMAYISYDGINNYNPSLKNRISIARDTSTNQFFLKLNSVTSEDTATYYCATTTEVALFDHWGQGTTLTVSS
VL: DVLLTQTPLSLPVSLGDQASISCRSSQNIVHGNGNTYLEWFLQKPGQSPKLLIYKVSNRFSGVPDRFSGSGSGTDFTLKISRVEAEDLGLYYCFQASHVPWTFGGGTKLEIKR
notes: as for B3
Monkey GPC3-His protein [3]
  Kd: 6.61 nM
  koff: 0.000317 s⁻¹
  kon: 48000 M⁻¹ s⁻¹
Human GPC3-His protein
  Kd: 9.04 nM
  koff: 0.000314 s⁻¹
  kon: 34700 M⁻¹ s⁻¹
Monkey GPC3-His protein [4]
  OD450 at 0.0001 nM: 0.04 OD450
  OD450 at 0.001 nM: 0.25 OD450
  OD450 at 0.01 nM: 0.3 OD450
  OD450 at 0.1 nM: 0.72 OD450
  OD450 at 1 nM: 1.39 OD450
  OD450 at 10 nM: 1.53 OD450
  OD450 at 100 nM: 1.5 OD450
